In US20240200091A1, “USE OF PROTOPORPHYRINOGEN OXIDASE” (BEIJING DABEINONG BIOTECHNOLOGY CO., LTD., priority 2021, published 2024):

Legend:
Assay type in all cases: in vivo
[1] = test system: transgenic soybean plants; assay: oxyfluorfen tolerance of transgenic soybean plants (spray, grade of pesticide damage); conditions: for The grade of pesticide damage/plant: grade 0 / The grade of pesticide damage/plant: grade 1 / The grade of pesticide damage/plant: grade 2 / The grade of pesticide damage/plant: grade 3: 7 DAT, number of plants of 16 per genotype, grades; for tolerance to oxyfluorfen: soybean
[2] = test system: transgenic soybean plants; assay: saflufenacil tolerance of transgenic soybean plants (spray, grade of pesticide damage); set-up: key to damage levels rated at grade: grade 0 means that the growth status of plants is essentially consistent with those sprayed with the blank solvent (water); grade 1 means that the average of the damage levels of plants is less than 10%; grade 2 means that the average of the damage levels of plants is greater than 100%; grade 3 means that the average of the damage levels of plants is 100%; conditions: for The grade of pesticide damage/plant: grade 0 / The grade of pesticide damage/plant: grade 1 / The grade of pesticide damage/plant: grade 2 / The grade of pesticide damage/plant: grade 3: 7 DAT, number of plants of 16 per genotype, grades
[3] = test system: Arabidopsis thaliana T1 plants; assay: saflufenacil tolerance of transgenic Arabidopsis thaliana T1 plants (spray, grade of pesticide damage); conditions: 7 DAT, number of plants of 24 per genotype, grades
Method in brief: (§1)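 Glufosinate-selected T1 lines expressing PPO variants, with control-vector and wild-type plants (24 per genotype), were sprayed 18 days after sowing with saflufenacil 25 or 100, sulfentrazone 450 or 900, flumioxazin 60 or 240, or oxyfluorfen 180 or 720 g ai/ha, or water. Injured/total leaf area was graded 0–3 at 7 DAT.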

[4] = test system: Arabidopsis thaliana T1 plants; assay: oxyfluorfen tolerance of transgenic Arabidopsis thaliana T1 plants (spray, grade of pesticide damage); conditions: 7 DAT, number of plants of 24 per genotype, grades
Method in brief: as §1

[5] = test system: Arabidopsis thaliana T1 plants; assay: flumioxazin tolerance of transgenic Arabidopsis thaliana T1 plants (spray, grade of pesticide damage); conditions: 7 DAT, number of plants of 24 per genotype, grades
Method in brief: as §1

[6] = test system: transgenic soybean plants; assay: flumioxazin tolerance of transgenic soybean plants (spray, grade of pesticide damage); conditions: for The grade of pesticide damage/plant: grade 0 / The grade of pesticide damage/plant: grade 1 / The grade of pesticide damage/plant: grade 2 / The grade of pesticide damage/plant: grade 3: 7 DAT, number of plants of 16 per genotype, grades
[7] = test system: Arabidopsis thaliana T1 plants; assay: sulfentrazone tolerance of transgenic Arabidopsis thaliana T1 plants (spray, grade of pesticide damage); conditions: 7 DAT, number of plants of 24 per genotype, grades
Method in brief: as §1

B1: PPO12A: nucleotide sequence encoding microbial protoporphyrinogen oxidase PPO12 (SEQ ID NO:12), Arabidopsis thaliana/soybean common codon usage bias (nucleic acid)
DNA: ATGAAGAAAGCTCTTTTCCTGTACAGCTCGAGAGAAGGCCAGACAAAAAAGATTCTCAACTACATAGAAGGAGAGTTATCAAATTTTGAATGTGAATTGGTTGACCTTCACACGCTTGATGCTATTGATTTCTCCGTCTATGATCGGGTGCTCATTGGTGCTTCTATACGATATGGTCATTTGAACAAGAAGCTTTATCAGTTTATAGAGAACAACAGACAACAACTAGAGAATCATACCAAAGTTGCCTTCTTCTGCGTCAATCTTACTGCAAGGAAAGAAGATCAAGGAAAAGACACTCCTGAGGGGAGTGTTTACATCCAGAAATTTCTCAAGAAATCACCATGGCAACCGAAGTTGATTGGAGTTTTCGCGGGGGCATTATACTACCCTCGTTATGGATTCTTTGATAAGATGATGATCAAACTCATCATGACTTTAACTGATGGTGAAACCGACACAACAAAGGAAGTGGAGTATACAAATTGGAAAAAAGTATCTTTGTTTGCAAAGAAGTTTGCTGAGCTGTGA
modifications: The nucleotide sequence of PPO12A
[1]; oxyfluorfen 360 g ai/ha (2×)
  The grade of pesticide damage/plant: grade 0: 16 plant
  The grade of pesticide damage/plant: grade 1: 0 plant
  The grade of pesticide damage/plant: grade 2: 0 plant
  The grade of pesticide damage/plant: grade 3: 0 plant
[1]; oxyfluorfen 720 g ai/ha (4×)
  The grade of pesticide damage/plant: grade 0: 16 plant
  The grade of pesticide damage/plant: grade 1: 0 plant
  The grade of pesticide damage/plant: grade 2: 0 plant
  The grade of pesticide damage/plant: grade 3: 0 plant
[1]; oxyfluorfen at four-fold field concentration (720 g ai/ha)
  tolerance to oxyfluorfen: high-resistant tolerance
[1]; oxyfluorfen at two-fold field concentration (360 g ai/ha)
  tolerance to oxyfluorfen: high-resistant tolerance
[2]; saflufenacil 50 g ai/ha (2×)
  The grade of pesticide damage/plant: grade 0: 16 plant
  The grade of pesticide damage/plant: grade 1: 0 plant
  The grade of pesticide damage/plant: grade 2: 0 plant
  The grade of pesticide damage/plant: grade 3: 0 plant
[2]; saflufenacil 100 g ai/ha (4×)
  The grade of pesticide damage/plant: grade 0: 16 plant
  The grade of pesticide damage/plant: grade 1: 0 plant
  The grade of pesticide damage/plant: grade 2: 0 plant
  The grade of pesticide damage/plant: grade 3: 0 plant
[2]; soybean, saflufenacil at four-fold field concentration (100 g ai/ha)
  tolerance to saflufenacil: high-resistant tolerance
[2]; soybean, saflufenacil at two-fold field concentration (50 g ai/ha)
  damage levels rated at grade: 0
[2]; soybean, saflufenacil, compared with the control vector and CK
  tolerance to saflufenacil: different extents of tolerance
[3]; saflufenacil 25 g ai/ha (1×)
  The grade of pesticide damage/plant: grade 0: 24 plant
  The grade of pesticide damage/plant: grade 1: 0 plant
  The grade of pesticide damage/plant: grade 2: 0 plant
  The grade of pesticide damage/plant: grade 3: 0 plant
[3]; saflufenacil 100 g ai/ha (4×)
  The grade of pesticide damage/plant: grade 0: 0 plant
  The grade of pesticide damage/plant: grade 1: 24 plant
  The grade of pesticide damage/plant: grade 2: 0 plant
  The grade of pesticide damage/plant: grade 3: 0 plant
[4]; oxyfluorfen 180 g ai/ha (1×)
  The grade of pesticide damage/plant: grade 0: 24 plant
  The grade of pesticide damage/plant: grade 1: 0 plant
  The grade of pesticide damage/plant: grade 2: 0 plant
  The grade of pesticide damage/plant: grade 3: 0 plant
[4]; oxyfluorfen 720 g ai/ha (4×)
  The grade of pesticide damage/plant: grade 0: 20 plant
  The grade of pesticide damage/plant: grade 1: 4 plant
  The grade of pesticide damage/plant: grade 2: 0 plant
  The grade of pesticide damage/plant: grade 3: 0 plant
[5]; flumioxazin 60 g ai/ha (1×)
  The grade of pesticide damage/plant: grade 0: 24 plant
  The grade of pesticide damage/plant: grade 1: 0 plant
  The grade of pesticide damage/plant: grade 2: 0 plant
  The grade of pesticide damage/plant: grade 3: 0 plant
[5]; flumioxazin 240 g ai/ha (4×)
  The grade of pesticide damage/plant: grade 0: 24 plant
  The grade of pesticide damage/plant: grade 1: 0 plant
  The grade of pesticide damage/plant: grade 2: 0 plant
  The grade of pesticide damage/plant: grade 3: 0 plant
[6]; flumioxazin 120 g ai/ha (2×)
  The grade of pesticide damage/plant: grade 0: 16 plant
  The grade of pesticide damage/plant: grade 1: 0 plant
  The grade of pesticide damage/plant: grade 2: 0 plant
  The grade of pesticide damage/plant: grade 3: 0 plant
[6]; flumioxazin 240 g ai/ha (4×)
  The grade of pesticide damage/plant: grade 0: 16 plant
  The grade of pesticide damage/plant: grade 1: 0 plant
  The grade of pesticide damage/plant: grade 2: 0 plant
  The grade of pesticide damage/plant: grade 3: 0 plant
[6]; soybean, flumioxazin at different concentrations (120 and 240 g ai/ha)
  tolerance to flumioxazin: high-resistant tolerance
[7]; sulfentrazone 450 g ai/ha (1×)
  The grade of pesticide: grade 0: 24
  The grade of pesticide: grade 1: 0
  The grade of pesticide: grade 2: 0
  The grade of pesticide: grade 3: 0
[7]; sulfentrazone 900 g ai/ha (2×)
  The grade of pesticide: grade 0: 23
  The grade of pesticide: grade 1: 1
  The grade of pesticide: grade 2: 0
  The grade of pesticide: grade 3: 0
